Laboratory results reported in patent publication US20190175744A1 (Merck Sharp & Dohme, published 2019).
Starred links: 1 amine or outer side, 2 acyl side, 3 side chain; linkers in the order of their positions; H or OH if unused. Non-standard residues stand in square brackets, D forms with d. Groups on a side chain read outwards from the residue. No end group written: not given here. *: point of attachment. C20 diacid = O=C(O)CCCCCCCCCCCCCCCCCCC(=O)*; Lys(N3) = [N-]=[N+]=NCCCC[C@H](N)C(=O)O; γGlu = O=C(O)[C@H](CCC(=O)[*:2])N[*:1]; Met(O2) = CS(=O)(=O)CC[C@H](N)C(=O)O; AEEA = NCCOCCOCC(=O)O; Aib = CC(C)(N)C(=O)O

B1: PEP37 (peptide)
peptide: HXQGTFTSDKSKYLDERAAQDFVXWXXDT
modifications: D-Ser (s) at 2; Lys 10 K(γEγEC16); Nle(εN3) at 24; alpha-methyl-L-Leu (αML) at 26; L-methionine sulphone (2) at 27; C-terminal amide
B2: PEP31 (peptide)
peptide: H[Aib]QGTFTSDYSKYLDARAAK([AEEA-AEEA-γGlu-C20 diacid])DFV[Lys(N3)]WL[Met(O2)]DT-NH2
modifications: N-terminus assumed
SMILES: CC(C)C[C@H](NC(=O)[C@H](Cc1ccc(O)cc1)NC(=O)[C@H](CCCCN)NC(=O)[C@H](CO)NC(=O)[C@H](Cc1ccc(O)cc1)NC(=O)[C@H](CC(=O)O)NC(=O)[C@H](CO)NC(=O)[C@@H](NC(=O)[C@H](Cc1ccccc1)NC(=O)[C@@H](NC(=O)CNC(=O)[C@H](CCC(N)=O)NC(=O)C(C)(C)NC(=O)[C@@H](N)Cc1c[nH]cn1)[C@@H](C)O)[C@@H](C)O)C(=O)N[C@@H](CC(=O)O)C(=O)N[C@@H](C)C(=O)N[C@@H](CCCNC(=N)N)C(=O)N[C@@H](C)C(=O)N[C@@H](C)C(=O)N[C@@H](CCCCNC(=O)COCCOCCNC(=O)COCCOCCNC(=O)CC[C@H](NC(=O)CCCCCCCCCCCCCCCCCCC(=O)O)C(=O)O)C(=O)N[C@@H](CC(=O)O)C(=O)N[C@@H](Cc1ccccc1)C(=O)N[C@H](C(=O)N[C@@H](CCCCN=[N+]=[N-])C(=O)N[C@@H](Cc1c[nH]c2ccccc12)C(=O)N[C@@H](CC(C)C)C(=O)N[C@@H](CCS(C)(=O)=O)C(=O)N[C@@H](CC(=O)O)C(=O)N[C@H](C(N)=O)[C@@H](C)O)C(C)C
B3: PEP34 (peptide)
peptide: HXQGTFTSDKSKYLDERAAQXFVXWLXDT
modifications: D-Ser (s) at 2; Lys 10 K(γEγEC16); alpha-methyl-L-Asp (αMD) at 21; Nle(εN3) at 24; L-methionine sulphone (2) at 27; C-terminal amide
B4: PEP32 (peptide)
peptide: HXQGTFTSXKSKYLDERAAQDFVXWLXDT
modifications: D-Ser (s) at 2; alpha-methyl-L-Asp (αMD) at 9; Lys 10 K(γEγEC16); Nle(εN3) at 24; L-methionine sulphone (2) at 27; C-terminal amide
B5: PEP35 (peptide)
peptide: HXQGTFTSDKSKYLDERAAQDXVXWLXDT
modifications: D-Ser (s) at 2; Lys 10 K(γEγEC16); alpha-methyl-L-Phe (αMF) at 22; Nle(εN3) at 24; L-methionine sulphone (2) at 27; C-terminal amide
B6: PEP74 (peptide)
peptide: HXQGTFTSDKSKYLDERAAQDFVXWLLDT
modifications: HsQGTFTSDK(γEγEC16)…le(ϵN3)WLLDT-NH2 (s=D-serine; K(γEγEC16) at 10; Nle(ϵN3)=azidonorleucine at 24; NH2=C-terminal amide)

Biological target: human glucagon receptor (human, UniProt P47871 26-477)
Assay: cell-based or functional assay

Point of comparison: HXQGTFTSDKSKYLDERAAQDFVXWLLDT (D-Ser (s) at 2; Nle(εN3) at 24; C-terminal amide) [PEP69], “hGCGR_EC50 (cAMP activity assay)” value 0.31 nM. Against it:
- B1 — 5.2-fold lower, 0.06 nM
- B2 — 14-fold higher, 4.24 nM
- B3 — 6.2-fold lower, 0.05 nM
- HXEGTFTSDKSKYLDERAAQDFVXWLLDT (D-Ser (s) at 2; Lys 10 K(γEγEC16); Nle(εN3) at 24; C-terminal amide) [PEP75] — higher, > 5 nM
- H[dS]QGTFTSDKSKYLDERAA[Lys(N3)]DFVQWLLDT-NH2 [PEP71] — 2.6-fold lower, 0.12 nM
- B4 — 5.2-fold lower, 0.06 nM
- B5 — 6.2-fold lower, 0.05 nM

Biological target: human GLP-1 receptor (human, UniProt P43220 24-463)
Assay: cell-based or functional assay

Point of comparison: B5, “hGLP1R EC50 (cAMP activity assay)” value 0.05 nM. Against it:
- B1 — within 1.5-fold, 0.04 nM
- HXQGTFTSDKSKYLDERAAQDFVXWLLDT (D-Ser (s) at 2; Nle(εN3) at 24; C-terminal amide) [PEP69] — 3.2-fold higher, 0.16 nM
- B2 — 28-fold higher, 1.38 nM
- B3 — the same, 0.05 nM
- HXEGTFTSDKSKYLDERAAQDFVXWLLDT (D-Ser (s) at 2; Lys 10 K(γEγEC16); Nle(εN3) at 24; C-terminal amide) [PEP75] — within 1.5-fold, 0.07 nM
- H[dS]QGTFTSDKSKYLDERAA[Lys(N3)]DFVQWLLDT-NH2 [PEP71] — within 1.5-fold, 0.06 nM
- B4 — within 1.5-fold, 0.04 nM

Biological target: human Glucagon receptor (GCGR) (human, UniProt P47871 26-477)
Assay: cell-based or functional assay

For H[dS]QGTFTSDK([γGlu-γGlu-C16])SKYLDERAAQDFVQWLLDT-NH2 [Control molecule PEP76 (Table 7)], the “Incretin Receptor Assay (cAMP) EC50, GCGR (Human)” value was 9 pM.

Biological target: human GLP-1 receptor (GLP1R) (human, UniProt P43220 24-463)
Assay: cell-based or functional assay

Point of comparison: B6, “Incretin Receptor Assay (cAMP) EC50, GLP1R (Human)” value 0.05 nM. Against it:
- H[dS]QGTFTSDK([γGlu-γGlu-C16])SKYLDERAAQDFVQWLLDT-NH2 [Control molecule PEP76 (Table 7)] — 7.1-fold lower, 0.007 nM
